Assay results taken from article doi:10.1101/591909.

Biological target: AP2M (UniProt P84091)
Experiment: cell-free ELISA, antibody-captured AP2M, biotinylated peptide
Conditions: reference: unphosphorylated control peptide; sites Y816

Which “binding against the reference” value does the source give for “TRKB (C-terminal peptide) C-terminus, last 26 aa (from UniProt Q63604) pY816 peptide” here?
Its value is “stronger”.
